One test deals with 4E-BP. Put plainly: p-4E-BP level in cultured PGs (Western blot). In kind it is cell-based, Bombyx mori. The settings on record: cultured PGs, 15 min; immunoblotting. As to the method:
Dissected PGs were rinsed with Grace's insect culture medium (Gibco) and pre-cultured individually in 100 µl medium in 96-well plates (BD Falcon) at 25°C for 30 min. To evaluate the effect of extracellular Ca^2+ on ecdysone biosynthesis, lepidopteran saline and lepidopteran saline using NaCl as a replacement for CaCl2 were used. For the pharmacological analysis, the PG was pre-treated with the inhibitor for 15 min during the pre-culture period. Following this treatment, the PG was cultured in the desired conditions for the desired period (Ecdysone assay: 3 hours; cAMP assay: 30 min; and Protein phosphorylation assay: 15 min). […]
Dissected PGs were pre-cultured in Grace's culture medium for 30 min, then cultured with or without PDF or PTTH for 15 min. The cultured PGs were sonicated in 50 mM Tris-HCl (pH 6.8) with protease inhibitor cocktail (Complete, Roche) and phosphatase inhibitor cocktail (Wako), lysed in 1x SDS sample buffer excluding 2-mercaptoethanol (2ME) and bromophenol blue (BPB), and the protein concentration was measured using the BCA protein assay kit (Pierce). […]
Figure 4 Signaling pathways involved in PDF-induced ecdysone biosynthesis. […] The transcript levels of nvd, nm-g, spo, phm, dib and sad were quantified with Q-PCR. […] Statistically significant differences were evaluated by Student's t-test (***P<0.001, **P<0.01). […]
(In western blotting, separated proteins are transferred to a membrane and probed.)

Test [1] relates to nvd, nm-g, spo, phm, dib and sad. The settings on record: ref [8]; cited from earlier work. The text has this:
Ecdysone is the key regulator of insect growth and development. Ecdysone is synthesized in the PGs and the biosynthesis is intricately regulated by several neuropeptides. To date, four prothoracicotropic peptides (PTTH, FXPRL-amides, insulin and orcokinins) and three prothoracicostatic peptides (PTSP, Bommo-myosuppressin and Bommo-FMRF-amides) have been identified in Bombyx mori. The participation of four cytochrome P450 (CYP) enzymes (CYP307A1, Spook (Spo); CYP306A1, Phantom (Phm); CYP302A1, Disembodied (Dib); CYP315A1, Shadow (Sad)); an oxygenase-like protein, Neverland (Nvd); and a sh ... || Because PDF increased the intracellular cAMP level in PGs, the involvement of PKA in the PDF signaling pathway was expected. […] In mammals, most of the CYP enzymes involved in steroid hormone biosynthesis are transcriptionally regulated. In PTTH- and dbcAMP-induced ecdysone biosynthesis, ecdysone biosynthesi ...

B1: PTTH: prothoracicotropic hormone, humoral pathway-mediated tropic hormone (protein, UniProt P17219 116-224, looked up)
Prothoracicotropic hormone: GNIQVENQAIPDPPCTCKYKKEIEDLGENSVPRFIETRNCNKTQQPTCRPPYICKESLYSITILKRRETKSQESLEIPNELKYRWVAESHPVSVACLCTRDYQLRYNNN
modifications: Prothoracicotropic hormone
As for B1, the “level of p-4E-BP” value in the test with 4E-BP was “upregulated by both PDF and PTTH”. Besides, in test [1], the “transcript level of ecdysone biosynthetic enzymes (literature)” value is given as “upregulated the transcript level of some ecdysone biosynthetic enzymes”; the “transcript levels of spo, dib and phm (literature)” value is listed as “upregulated by PTTH”.
